Literature values as cited in US12714740B2, “Compositions comprising a tweak ligand and methods of using same” (Children's Hospital Medical Center, priority 2019, dated 2026).

Target: T1, Fn14 (Homo sapiens, UniProt Q9NP84)
T1 sequence (Q9NP84 28-129): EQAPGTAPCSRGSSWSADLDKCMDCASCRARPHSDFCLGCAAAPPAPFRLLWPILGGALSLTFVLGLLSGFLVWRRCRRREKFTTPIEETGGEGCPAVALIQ
Conditions: natural ligand binding to Fn14; high affinity; read-out: interaction affinity constant (Kd)

Kd: 0.8 to 2.4 nM
B1: TWEAK: natural ligand for Fn14; 14 kDa protein, TNF superfamily member 12 (protein, UniProt O43508 94-249, looked up)
Tumor necrosis factor ligand …: SAPKGRKTRARRAIAAHYEVHPRPGQDGAQAGVDGTVSGWEEARINSSSPLRYNRQIGEFIVTRAGLYYLYCQVHFDEGKAVYLKLDLLVDGVLALRCLEEFSATAASSLGPQLRLCQVSGLLALRPGSSLRIRTLPWAHLKAAPFLTYFGLFQVH
